Our source for the CmCalS1 enzyme activity in vitro with CmNAC100L1 added (CmNAC100L1 3.5 ng, CmCalS1 85 ng); 18.61 U L^-1 without CmNAC100L1 and CmCalS1 enzyme activity in vitro with CmNAC100L1 added (CmNAC100L1 3.5 ng, CmCalS1 85 ng); 10.33 U L^-1 without CmNAC100L1 values is publication PMC10873582.

Assay [1] has as its target CmCalS1 of 'Dongyangshenli' (Cucurbita moschata ('Dongyangshenli')).
Assay [2] deals with CmCalS1 of figleaf gourd (Cucurbita ficifolia (figleaf gourd)).

In assay [1], “CmNAC100L1 of 'Dongyangshenli' (natural protein)” came in with a CmCalS1 enzyme activity in vitro with CmNAC100L1 added (CmNAC100L1 3.5 ng, CmCalS1 85 ng); 18.61 U L^-1 without CmNAC100L1 of 47.8 U L^-1. With “CmNAC100L1 of figleaf gourd (natural protein)”, the CmCalS1 enzyme activity in vitro with CmNAC100L1 added (CmNAC100L1 3.5 ng, CmCalS1 85 ng); 10.33 U L^-1 without CmNAC100L1 in assay [2] turned out to be 3.23 U L^-1.
